The series has as its system ATP. Briefly: switch fluorescence ratio, 500 uM ATP over buffer (Cy3 cluster intensity, sum of 5 cycles each) (fold (ratio)); higher = stronger signal-on switching upon ATP binding; sequences stand for … in TCGTCGGCAGCGTCAGATGTGTATAAGAGACAGTTTTTTTTTTTTTTTTTTTTTTTTT…TC. The following applies: aptamer strand: ATP DNA aptamer (quencher-CACCTGGGGGAGTATTGCGGAGGAAGG + anchor), 100 nM annealed; ATP concentration: 500 uM. The method, boiled down:
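Between each of five buffer/ATP cycles, the flow-cell was stripped with NaOH and re-annealed. Each cycle imaged Cy3-labelled switching-strand clusters, annealed to 100 nM quencher-labelled ATP aptamer on a modified Illumina MiSeq flow-cell, first in selection buffer and then after 15 min with 500 uM ATP at 22 °C. The fluorescence ratio is summed target-cycle over summed buffer-cycle Cy3 intensity per cluster, averaged per switch-domain sequence, with clusters outside 100-1000 RFU excluded.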

± gives the standard deviation of the averaged measurements.
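Note: ATP exposure 15 min at 22 °C before imaging.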

Turning to TTTGATTCTT, the switch fluorescence ratio was found to be 1.004 ± 0.0033.

Regarding TTTGATTGAG, the switch fluorescence ratio worked out at 0.953 ± 0.012. With TTTGATTGTG the figure was 1.03 ± 0.029; with TTTGATTTGG, 0.921 ± 0.022. With TTTGCAAACA the figure was 1 ± 0.061. Under TTTGCACTTT stands 1 ± 0.046; under TTTGCAGCC, 1.05 ± 0.066; under TTTGCAGCGC, 0.998 ± 0.021. TTTGCAGGGA: the switch fluorescence ratio amounted to 1.06 ± 0.1. In the case of TTTGCAGT, the switch fluorescence ratio is 1.1 ± 0.12. As for TTTGCATATA, the switch fluorescence ratio came to 1.09 ± 0.11. For the sequence TTTGCATGAA, the switch fluorescence ratio came to 0.992 ± 0.011. Under TTTGCATGTA stands 1.02 ± 0.027; under TTTGCCCCTT, 1.02 ± 0.03. Consider TTTGCCTGCT, for which the switch fluorescence ratio turned out to be 1.01 ± 0.043. With TTTGCGAGCG the figure was 1.01 ± 0.023; with TTTGCGGTGG, 1.01 ± 0.075; with TTTGCGTAAG, 1.02 ± 0.033. Under TTTGCGTGCA stands 0.975 ± 0.011. Under TTTGCGTGTT stands 1.019 ± 0.0086.

On to TTTGCTAAA, for which the switch fluorescence ratio was determined as 1.01 ± 0.046. Under TTTGCTCACG stands 1.01 ± 0.029; under TTTGCTCTTA, 1 ± 0.056; under TTTGCTGCAG, 1.003 ± 0.003. Take TTTGCTGGTG: the switch fluorescence ratio worked out at 1.1 ± 0.026. In the case of TTTGCTTA, the switch fluorescence ratio amounted to 0.995 ± 0.012.

For the sequence TTTGCTTATG, the switch fluorescence ratio came to 0.9924 ± 0.0045. With TTTGGAAAGC the figure was 1.04 ± 0.019; with TTTGGAAGTT, 0.9817 ± 0.0035.

TTTGGAATAC: the switch fluorescence ratio was 2.92 ± 1.

In the case of TTTGGAATCA, the switch fluorescence ratio stood at 1.008 ± 0.0098.

Consider TTTGGAATGG, for which the switch fluorescence ratio was found to be 0.991 ± 0.054.

For TTTGGACGGC, the switch fluorescence ratio was 1.04 ± 0.065. In the case of TTTGGACGGG, the switch fluorescence ratio amounted to 0.995 ± 0.033. With TTTGGAGATA the figure was 1.03 ± 0.032; with TTTGGAGCAG, 1.14 ± 0.13; with TTTGGAGGGT, 1.02 ± 0.064. On to TTTGGAGGTA, for which the switch fluorescence ratio is 1.01 ± 0.059. As to TTTGGAGTGC, the switch fluorescence ratio is 1 ± 0.05.

As for TTTGGAGTT, the switch fluorescence ratio stood at 1 ± 0.02.

Turning to TTTGGATATA, the switch fluorescence ratio was 0.9726 ± 0.0041. With TTTGGATATG, the switch fluorescence ratio worked out at 0.992 ± 0.037. Under TTTGGATGAC stands 1.01 ± 0.063; under TTTGGATGGC, 1.02 ± 0.057; under TTTGGATGTT, 1 ± 0.011. Under TTTGGATTAG stands 0.9746 ± 0.0037; under TTTGGATTTG, 1.03 ± 0.027. As to TTTGGCACAC, the switch fluorescence ratio worked out at 1.046 ± 0.0048. As to TTTGGCAGGG, the switch fluorescence ratio came to 0.996 ± 0.024. Under TTTGGCATCA stands 1.04 ± 0.013; under TTTGGCCGGT, 1.04 ± 0.056. With TTTGGCGAAA the figure was 1.01 ± 0.019. Under TTTGGCGGAA stands 1.04 ± 0.011; under TTTGGCGTTT, 1.01 ± 0.024; under TTTGGCTGGA, 1.04 ± 0.072. As for TTTGGCTGTG, the switch fluorescence ratio worked out at 0.973 ± 0.029. Under TTTGGGAAAG stands 0.978 ± 0.032. In the case of TTTGGGAATG, the switch fluorescence ratio worked out at 1.06 ± 0.13. Under TTTGGGACCT stands 1 ± 0.048. Under TTTGGGACGG stands 0.999 ± 0.065; under TTTGGGAGTT, 1.05 ± 0.19. With TTTGGGATAC the figure was 1.24 ± 0.28. For the sequence TTTGGGATGG, the switch fluorescence ratio was determined as 0.983 ± 0.046. With TTTGGGCCGT, the switch fluorescence ratio worked out at 0.971 ± 0.043. TTTGGGGATT: the switch fluorescence ratio stood at 1.01 ± 0.036. Under TTTGGGGCGA stands 1.02 ± 0.031; under TTTGGGGCGC, 1.01 ± 0.048; under TTTGGGGCGG, 0.989 ± 0.038. Under TTTGGGGGCG stands 0.983 ± 0.081. Take TTTGGGGTTG: the switch fluorescence ratio was determined as 0.999 ± 0.037.

Consider TTTGGGTGGG, for which the switch fluorescence ratio is 0.985 ± 0.041. For the sequence TTTGGGTGTG, the switch fluorescence ratio stood at 0.983 ± 0.016. With TTTGGGTTAT the figure was 1.08 ± 0.21; with TTTGGGTTTC, 0.977 ± 0.017. As to TTTGGTAATT, the switch fluorescence ratio was found to be 1.03 ± 0.034. TTTGGTAGTT: the switch fluorescence ratio was 0.987 ± 0.015. Regarding TTTGGTCGGG, the switch fluorescence ratio turned out to be 1.01 ± 0.03. On to TTTGGTGAAC, for which the switch fluorescence ratio is 1 ± 0.022.

(Values after the supplement of paper PMC10126150.)
